Assay results as given in patent US20130171061A1.

Legend:
[1] = target: Human transferrin receptor on K562 cells (human) (UniProt P02786); assay: FACS of K562 cells with BSA-coupled fluorescent beads (negative control), 37 C, 1 h
[2] = target: Human transferrin receptor on K562 cells (human) (UniProt P02786); assay: FACS of K562 cells with BSA-coupled fluorescent beads (negative control), 4 C, 1 h
[3] = target: Human transferrin receptor on K562 cells (human) (UniProt P02786); assay: FACS of K562 cells with BSA-coupled fluorescent beads (negative control), 37 C with sodium azide, 1 h

Chain of Human transferrin receptor on K562 cells (human) (P02786 whole entry): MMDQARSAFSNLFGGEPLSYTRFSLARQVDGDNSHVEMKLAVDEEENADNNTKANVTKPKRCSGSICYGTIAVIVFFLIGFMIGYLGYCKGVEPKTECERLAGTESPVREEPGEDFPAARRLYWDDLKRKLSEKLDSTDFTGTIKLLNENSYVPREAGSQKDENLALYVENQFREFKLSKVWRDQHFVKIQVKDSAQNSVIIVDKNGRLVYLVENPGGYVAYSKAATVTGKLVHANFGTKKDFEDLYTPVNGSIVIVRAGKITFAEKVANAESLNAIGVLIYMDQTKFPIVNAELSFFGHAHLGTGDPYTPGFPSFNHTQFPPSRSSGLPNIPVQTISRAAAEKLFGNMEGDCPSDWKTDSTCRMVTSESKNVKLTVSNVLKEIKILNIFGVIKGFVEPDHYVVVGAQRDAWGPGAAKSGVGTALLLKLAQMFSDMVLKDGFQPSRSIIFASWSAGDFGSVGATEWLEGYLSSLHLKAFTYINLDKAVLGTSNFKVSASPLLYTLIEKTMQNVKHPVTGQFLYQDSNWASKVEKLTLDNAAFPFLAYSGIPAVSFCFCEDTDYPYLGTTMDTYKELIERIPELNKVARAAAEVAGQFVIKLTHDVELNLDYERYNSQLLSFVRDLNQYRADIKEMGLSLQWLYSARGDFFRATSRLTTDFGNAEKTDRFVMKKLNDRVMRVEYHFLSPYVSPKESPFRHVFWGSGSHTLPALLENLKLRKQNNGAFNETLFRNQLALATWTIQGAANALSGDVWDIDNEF

Mean fluorescence intensity (MFI) [1]: 9.07 MFI
Mean fluorescence intensity (MFI) [2]: 1.45 MFI
Mean fluorescence intensity (MFI) [3]: 3.49 MFI
Substance: BSA (negative control on fluorescent beads) (from UniProt P02769 25-607)
